The results in this text go back to PMC5836133, “The intracellular immune receptor Rx1 regulates the DNA-binding activity of a Golden2-like transcription factor”.

Values joined by “and” are separate entries in the source; they are usually repeats but may differ in a detail not shown here. Equal entries are not always repeated.

Data set [1] concerns the target T1, NbGlk1(83-402) (Nicotiana benthamiana, UniProt A0A1S4ALG4 83-410).
T1 sequence: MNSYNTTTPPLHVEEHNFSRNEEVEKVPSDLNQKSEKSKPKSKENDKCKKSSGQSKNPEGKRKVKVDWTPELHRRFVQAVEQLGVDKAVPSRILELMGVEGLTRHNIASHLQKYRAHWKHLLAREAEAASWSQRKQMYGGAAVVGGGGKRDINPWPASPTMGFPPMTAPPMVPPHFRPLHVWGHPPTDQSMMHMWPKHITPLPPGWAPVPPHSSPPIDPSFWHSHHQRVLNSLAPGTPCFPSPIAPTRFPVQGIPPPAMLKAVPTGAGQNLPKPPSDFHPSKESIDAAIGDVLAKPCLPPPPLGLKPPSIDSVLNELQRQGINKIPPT
Briefly: fluorescence anisotropy. The following applies: 20 mM Tris-HCl pH 7.4, 140 mM NaCl, 1 mM DTT, 10 nM fluorescein-labelled dsDNA, temperature not stated, Kd unit uM inferred from text (Kd >1 uM).

In data set [2] the target is T2, NbGlk1(83-243) (Nicotiana benthamiana, UniProt A0A1S4ALG4 83-252).
T2 sequence: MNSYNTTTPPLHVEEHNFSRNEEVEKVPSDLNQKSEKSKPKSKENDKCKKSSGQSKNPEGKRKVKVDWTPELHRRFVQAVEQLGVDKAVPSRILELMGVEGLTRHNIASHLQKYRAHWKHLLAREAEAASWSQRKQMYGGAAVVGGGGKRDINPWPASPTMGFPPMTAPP
The data set can be described thus: fluorescence anisotropy. The following applies: 20 mM Tris-HCl pH 7.4, 140 mM NaCl, 1 mM DTT, 10 nM fluorescein-labelled dsDNA, temperature not stated, Kd unit uM inferred from text (Kd >1 uM). For orientation: Fluorescence polarisation rises when a labelled molecule tumbles more slowly, as on binding a larger partner.

Data set [3] addresses T3, NbGlk1(83-402) (Nicotiana benthamiana).
T3 chain: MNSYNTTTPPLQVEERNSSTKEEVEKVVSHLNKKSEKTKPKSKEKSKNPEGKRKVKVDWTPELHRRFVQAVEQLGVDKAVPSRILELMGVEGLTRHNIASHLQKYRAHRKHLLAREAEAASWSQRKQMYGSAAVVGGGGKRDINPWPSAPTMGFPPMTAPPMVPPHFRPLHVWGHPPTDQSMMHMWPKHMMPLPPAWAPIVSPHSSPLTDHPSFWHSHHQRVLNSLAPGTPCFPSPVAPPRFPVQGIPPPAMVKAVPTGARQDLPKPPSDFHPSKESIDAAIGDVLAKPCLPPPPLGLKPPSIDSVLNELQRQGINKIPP
The data set can be described thus: fluorescence anisotropy; Fluorescence anisotropy: 20 mM Tris-HCl pH 7.4, 140 mM NaCl, 1 mM DTT, 10 nM labelled DNA; temperature not stated. PBM conditions as in cited protocols. Conditions: protein: recombinant, tags: His6 (pET14b), annealed complementary oligonucleotides.

The target of data set [4] is T4, NbGlk1(83-243) (Nicotiana benthamiana).
T4 chain: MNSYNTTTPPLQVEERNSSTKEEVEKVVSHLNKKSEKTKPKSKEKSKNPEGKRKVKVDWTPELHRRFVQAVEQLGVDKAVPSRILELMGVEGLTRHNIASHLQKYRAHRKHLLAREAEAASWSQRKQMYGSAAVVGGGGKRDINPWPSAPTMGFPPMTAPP
The data set is described as above. Conditions: protein: recombinant, tags: His6 (pET14b), annealed complementary oligonucleotides.

The target of data set [5] is T1, NbGlk1(83-402). The data set can be described thus: fluorescence anisotropy; no Rx1; 20 mM Tris-HCl pH 7.4, 140 mM NaCl, 1 mM DTT; 10 nM fluorescein-labelled dsDNA; temperature not stated; Kd unit uM inferred from text (Kd >1 uM). The following applies: protein: recombinant; tags: His6 (pET14b); label: 6-carboxyfluorescein end label on FA-1; annealed complementary oligonucleotides.

Data set [6] has as its target T2, NbGlk1(83-243). The description is as above. Conditions: protein: recombinant; tags: His6 (pET14b); label: 6-carboxyfluorescein end label on FA-1; annealed complementary oligonucleotides.
The target of data set [7] is T1, NbGlk1(83-402). Briefly: fluorescence anisotropy; no Rx1 (Table 2 series); 20 mM Tris-HCl pH 7.4, 140 mM NaCl, 1 mM DTT; 10 nM fluorescein-labelled dsDNA; temperature not stated; Kd unit uM inferred from text (Kd >1 uM). The following applies: protein: recombinant; tags: His6 (pET14b); label: 6-carboxyfluorescein end label on FA-1; annealed complementary oligonucleotides.

The test system of data set [8] is NbGlk1(1-243) (Nicotiana benthamiana). The data set can be described thus: fluorescence anisotropy. The following applies: 20 mM Tris-HCl pH 7.4, 140 mM NaCl, 1 mM DTT, 10 nM fluorescein-labelled dsDNA, temperature not stated, Kd unit uM inferred from text (Kd >1 uM).
Setting [9] is: label: 6-carboxyfluorescein end label on FA-3.
The mark [10] stands for this setting: label: 6-carboxyfluorescein end label on FA-1.
[11] abbreviates: label: 6-carboxyfluorescein end label on FA-5.

B1: AGATTT (concatenated AGATTTCC; FA-3/FA-4) (dsDNA)
DNA 1: CAGATTTCCACAGATTTCCACAGATTTCCACAGATTTCCACAGATTTCCC
DNA 2: GGGAAATCTGTGGAAATCTGTGGAAATCTGTGGAAATCTGTGGAAATCTG
With B1, the Kd in data set [1] (+ Rx1(1-144)) came out at 0.46 µM; in data set [1] (+ Rx1(1-489)), 0.34 µM; in data set [1] (+ Rx1(GST-1-144)) it was 0.73 µM; in data set [1] (no Rx1 (Table 2 series)), 0.22 µM; in data set [1] (no Rx1) it was 0.16 µM; in data set [2] (+ Rx1(1-144)) it was 0.76 µM. Also, the Kd is 0.65 µM in data set [2] (+ Rx1(1-489)); 0.23 µM in data set [2] (no Rx1); 160 nM and 220 nM in data set [3] (setting [9]); 230 ± 10 nM in data set [4] (setting [9]).

B2: No site (FA-1/FA-2) (dsDNA)
DNA 1: CACTGTGACACACTGTGACACACTGTGACACACTGTGACACACTGTGACC
DNA 2: GGTCACAGTGTGTCACAGTGTGTCACAGTGTGTCACAGTGTGTCACAGTG
As for B2, the Kd in data set [3] (setting [10]) was 320 nM and 180 nM; in data set [4] (setting [10]) it was 330 ± 20 nM; in data set [5], 180 ± 10 nM; in data set [6] it was 330 ± 20 nM; in data set [7] it was 320 ± 30 nM.

B3: GATATC (concatenated GGATATCC; FA-5/FA-6) (dsDNA)
DNA 1: CGGATATCCACGGATATCCACGGATATCCACGGATATCCACGGATATCCC
DNA 2: GGGATATCCGTGGATATCCGTGGATATCCGTGGATATCCGTGGATATCCG
For the molecule B3, the Kd in data set [1] (+ Rx1(1-144)) was 0.3 µM; in data set [1] (+ Rx1(1-489)), 0.19 µM; in data set [1] (+ Rx1(GST-1-144)), 0.34 µM; in data set [1] (no Rx1 (Table 2 series)) it was 0.11 µM; in data set [1] (no Rx1), 0.08 µM; in data set [8] (+ Rx1(1-144)), greater than 1 µM. Further, the Kd is greater than 1 µM in data set [8] (+ Rx1(1-489)); greater than 1 µM in data set [8] (no Rx1, text: only a weak affinity); 0.4 µM in data set [2] (+ Rx1(1-144)); 0.5 µM in data set [2] (+ Rx1(1-489)); 0.18 µM in data set [2] (no Rx1); 80 nM and 110 nM in data set [3] (setting [11]). Besides, the Kd in data set [4] (setting [11]) stood at 180 ± 10 nM.

What is called Kd is the constant that tells how readily two partners part at equilibrium.
